B1: FCHO1 (parent)
chain: FSDPSQSDPETKDFWLNMAALTEA

Variants of: B1
Assay: protein stability index of a GFP-peptide fusion (GPS, HEK-293T) (PSI 1-6); higher = more stable
Settings: c terminus: a fixed tail appended
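Note: lentivirally expressed fusions sorted by FACS into six bins by GFP to DsRed ratio, PSI derived from sequencing read proportions per bin multiplied by bin number.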

Q: Which protein stability index does the source give for FSDPSQSDPETKDFWLIMAALTEA here?
A: 1.98

Q: Which protein stability index does the source give for FSKPSQSDPETKDFWLNMAALTEA here?
A: 1.48

Q: With FSLPSQSDPETKDFWLNMAALTEA as the variant, how does the protein stability index read?
A: 1.74

Q: Which protein stability index does the source give for FSTPSQSDPETKDFWLNMAALTEA here?
A: 1.74

Q: Which protein stability index does the source give for FSNPSQSDPETKDFWLNMAALTEA here?
A: 2.02

Q: With FSEPSQSDPETKDFWLNMAALTEA as the variant, how does the protein stability index read?
A: 2.73

Q: Which protein stability index does the source give for FSRPSQSDPETKDFWLNMAALTEA here?
A: 2.06

Q: With FSYPSQSDPETKDFWLNMAALTEA as the variant, how does the protein stability index read?
A: 1.78

Q: For FSVPSQSDPETKDFWLNMAALTEA, which protein stability index is on record?
A: 1.45

Q: For FSSPSQSDPETKDFWLNMAALTEA, which protein stability index is on record?
A: 2.38

Q: With FSDPSQSDPETKFFWLNMAALTEA as the variant, how does the protein stability index read?
A: 1.88

Q: With FSDPSQSDPETKQFWLNMAALTEA as the variant, how does the protein stability index read?
A: 2.08

Q: With FSDPSQSDPETKWFWLNMAALTEA as the variant, how does the protein stability index read?
A: 1.65

Q: Which protein stability index does the source give for FSDPSQSDPETKCFWLNMAALTEA here?
A: 1.77

Q: Which protein stability index does the source give for FSDPSQSDPETKKFWLNMAALTEA here?
A: 2.33

Q: For FSDPSQSDPEVKDFWLNMAALTEA, which protein stability index is on record?
A: 2.69

Q: With FSDPSQSDPEPKDFWLNMAALTEA as the variant, how does the protein stability index read?
A: 3.38

Q: For FSDPSQSDPEEKDFWLNMAALTEA, which protein stability index is on record?
A: 4.2

Q: Which protein stability index does the source give for FSDPSQSDPEDKDFWLNMAALTEA here?
A: 4.34

Q: For FSDPSQSDPEMKDFWLNMAALTEA, which protein stability index is on record?
A: 2.31

Q: For FSDPSQSDPEKKDFWLNMAALTEA, which protein stability index is on record?
A: 2.49

Q: Which protein stability index does the source give for FSDPSQSDPEQKDFWLNMAALTEA here?
A: 3.15

Q: For FSDPSQSDPEYKDFWLNMAALTEA, which protein stability index is on record?
A: 2.06

Q: With FSDPSQSDPENKDFWLNMAALTEA as the variant, how does the protein stability index read?
A: 3.12

Q: Which protein stability index does the source give for FSDPSQSDPETKDFWLNMAALTEG here?
A: 2.5

Q: For FSDPSQSDPETKDFWLNMAALTED, which protein stability index is on record?
A: 2.8

Q: Which protein stability index does the source give for FSDPSQSDPETKDFWLNMAALTEP here?
A: 2.06

Q: Which protein stability index does the source give for FSDPSQSDPETKDFWLNMAALTEW here?
A: 2.8

Q: Which protein stability index does the source give for FSDPSQSDPETKDFWLNMAALTEL here?
A: 2.67

Q: For FSDPSQSDPETKDFWLNMAALTEY, which protein stability index is on record?
A: 2.29

Q: For FSDPSQSDPETKDFWLNMAALTEC, which protein stability index is on record?
A: 2.36

Q: Which protein stability index does the source give for FSDPSQSDPETKDFWLNMAALTEH here?
A: 2.89

Q: With FSDPSQSDPETKDFWLNMAALTEK as the variant, how does the protein stability index read?
A: 3.38

Q: For FSDPSQSDPETKDFWLNMAALKEA, which protein stability index is on record?
A: 2.61

Q: For FSDPSQSDPETKDFWLNMAALIEA, which protein stability index is on record?
A: 2.86

Q: Which protein stability index does the source give for FSDPSQSDPETKDFWLNMAALHEA here?
A: 3

Q: Which protein stability index does the source give for FSDPSQSDPETKDFWLNMAALAEA here?
A: 2.87

Q: For FSDPSQSDPETKDFWLNMAALFEA, which protein stability index is on record?
A: 3.23

Q: For FSDPSQSDPETKDFWLNMAALQEA, which protein stability index is on record?
A: 2.9

Q: For QSDPSQSDPETKDFWLNMAALTEA, which protein stability index is on record?
A: 4.72

Q: For RSDPSQSDPETKDFWLNMAALTEA, which protein stability index is on record?
A: 3.73

Q: For GSDPSQSDPETKDFWLNMAALTEA, which protein stability index is on record?
A: 4.86

Q: For SSDPSQSDPETKDFWLNMAALTEA, which protein stability index is on record?
A: 4.74

Q: With WSDPSQSDPETKDFWLNMAALTEA as the variant, how does the protein stability index read?
A: 4.1

Q: With FSDPSQSDMETKDFWLNMAALTEA as the variant, how does the protein stability index read?
A: 3.39

Q: Which protein stability index does the source give for FSDPSQSDWETKDFWLNMAALTEA here?
A: 2.4

Q: With FSDPSQSDVETKDFWLNMAALTEA as the variant, how does the protein stability index read?
A: 3.54

Q: For FSDPSQSDNETKDFWLNMAALTEA, which protein stability index is on record?
A: 2.63

Q: Which protein stability index does the source give for FSDPSQSDCETKDFWLNMAALTEA here?
A: 2.68

Q: For FSDPSQSDGETKDFWLNMAALTEA, which protein stability index is on record?
A: 2.77

Q: For FSDPSQSDEETKDFWLNMAALTEA, which protein stability index is on record?
A: 4.01

Q: Which protein stability index does the source give for FSDPSQSDLETKDFWLNMAALTEA here?
A: 2.77

Q: For FSDPSQSDSETKDFWLNMAALTEA, which protein stability index is on record?
A: 2.6

Q: Which protein stability index does the source give for FSDPSQSDIETKDFWLNMAALTEA here?
A: 2.82

Q: With FSDPSQSDAETKDFWLNMAALTEA as the variant, how does the protein stability index read?
A: 3.12

Q: Which protein stability index does the source give for FSDPSQSDHETKDFWLNMAALTEA here?
A: 2.73

Q: Which protein stability index does the source give for FSDPDQSDPETKDFWLNMAALTEA here?
A: 3.93

Q: For FSDPRQSDPETKDFWLNMAALTEA, which protein stability index is on record?
A: 2.21

Q: With FSDPAQSDPETKDFWLNMAALTEA as the variant, how does the protein stability index read?
A: 3.03

Q: For FSDPVQSDPETKDFWLNMAALTEA, which protein stability index is on record?
A: 2.54

Q: For FSDPWQSDPETKDFWLNMAALTEA, which protein stability index is on record?
A: 1.74

Q: For FSDPQQSDPETKDFWLNMAALTEA, which protein stability index is on record?
A: 3.21

Q: For FSDPEQSDPETKDFWLNMAALTEA, which protein stability index is on record?
A: 4.46

Q: Which protein stability index does the source give for FSDPCQSDPETKDFWLNMAALTEA here?
A: 2.6

Q: Which protein stability index does the source give for FSDPSQSDPETKDFWLNKAALTEA here?
A: 2.91

Q: Which protein stability index does the source give for FSDPSQSDPETKDFWLNDAALTEA here?
A: 4.25

Q: With FSDPSQSDPETKDFWLNIAALTEA as the variant, how does the protein stability index read?
A: 2.37

Q: With FSDPSQSDPETKDFWLNGAALTEA as the variant, how does the protein stability index read?
A: 3.27

Q: With FSDPSQSDPETKDFWLNPAALTEA as the variant, how does the protein stability index read?
A: 3.53

Q: With FSDPSQSDPETKDFWLNEAALTEA as the variant, how does the protein stability index read?
A: 3.98

Q: Which protein stability index does the source give for FSDPSQSDPETKDFWLNSAALTEA here?
A: 3.12

Q: Which protein stability index does the source give for FSDPSQSDPETKDFWLNAAALTEA here?
A: 3.02

Q: With FSDPSQSDPETKDFWLNCAALTEA as the variant, how does the protein stability index read?
A: 2.78

Q: Which protein stability index does the source give for FSDPSQSDPETKDFWLNQAALTEA here?
A: 3.77

Q: For FSDPSQSDPETKDFWHNMAALTEA, which protein stability index is on record?
A: 2.3

Q: For FSDPSQSDPETKDFWWNMAALTEA, which protein stability index is on record?
A: 2.31

Q: For FSDPSQSDPETKDFWYNMAALTEA, which protein stability index is on record?
A: 2.73

Q: With FSDPSQSDPETKDFWNNMAALTEA as the variant, how does the protein stability index read?
A: 3.48

Q: For FSDPSQSDPETKDFWRNMAALTEA, which protein stability index is on record?
A: 2.21

Q: With FSDPSQSDPETKDFWANMAALTEA as the variant, how does the protein stability index read?
A: 2.87

Q: Which protein stability index does the source give for FSDPSQSDPETKDFWGNMAALTEA here?
A: 2.41

Q: Which protein stability index does the source give for FSDPSQSDPETKDMWLNMAALTEA here?
A: 4.12

Q: With FSDPSQSDPETKDYWLNMAALTEA as the variant, how does the protein stability index read?
A: 3.98

Q: Which protein stability index does the source give for FSDPSQSDPETKDVWLNMAALTEA here?
A: 4.01

Q: With FSDPSQSDPETKDNWLNMAALTEA as the variant, how does the protein stability index read?
A: 4.76

Q: Which protein stability index does the source give for FSDPSQSDPETKDKWLNMAALTEA here?
A: 4.72

Q: With FSDPSASDPETKDFWLNMAALTEA as the variant, how does the protein stability index read?
A: 2.91

Q: Which protein stability index does the source give for FSDPSLSDPETKDFWLNMAALTEA here?
A: 2.55

Q: For FSDPSKSDPETKDFWLNMAALTEA, which protein stability index is on record?
A: 2.52

Q: Which protein stability index does the source give for FSDPSCSDPETKDFWLNMAALTEA here?
A: 2.64

Q: For FSDPSDSDPETKDFWLNMAALTEA, which protein stability index is on record?
A: 3.3

Q: Which protein stability index does the source give for FSDPSSSDPETKDFWLNMAALTEA here?
A: 2.66

Q: Which protein stability index does the source give for FSDPSNSDPETKDFWLNMAALTEA here?
A: 2.56

Q: For FSDPSMSDPETKDFWLNMAALTEA, which protein stability index is on record?
A: 2.66
